Values quoted from earlier work as cited in paper PMC7042059.

Molecular target: Pyruvate kinase M2 (Homo sapiens) (UniProt P14618)
Settings: cited from earlier work

Sequence of Pyruvate kinase M2 (P14618 2-531): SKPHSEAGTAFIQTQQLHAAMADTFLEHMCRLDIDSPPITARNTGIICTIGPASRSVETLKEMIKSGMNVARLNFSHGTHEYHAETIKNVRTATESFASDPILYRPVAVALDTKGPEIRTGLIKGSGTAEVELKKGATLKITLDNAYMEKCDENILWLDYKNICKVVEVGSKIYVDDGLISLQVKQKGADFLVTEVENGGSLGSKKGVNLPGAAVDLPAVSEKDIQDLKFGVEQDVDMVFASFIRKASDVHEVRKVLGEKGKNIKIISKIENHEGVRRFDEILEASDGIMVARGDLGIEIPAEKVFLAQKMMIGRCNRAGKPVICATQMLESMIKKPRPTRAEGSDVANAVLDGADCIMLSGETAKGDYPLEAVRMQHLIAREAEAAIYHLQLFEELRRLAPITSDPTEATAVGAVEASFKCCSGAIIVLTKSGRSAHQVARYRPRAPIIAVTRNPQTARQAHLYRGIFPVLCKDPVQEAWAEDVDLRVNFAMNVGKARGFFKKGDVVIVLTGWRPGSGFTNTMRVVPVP

Pyruvate kinase M2 (from UniProt P14618)
Kd: 1000 nM
